From paper PMC5600342 (Biochemistry and Biophysics Reports, 2016) come the findings set out here.

Assay [1] has as its target mouse P1+P2 (stoichiometric mixture containing equal amounts of protamines P1 and P2) (mouse). In words: native gel or EMSA.
Assay [2] deals with T1, Mouse nucleoplasmin M.NPM2 (full murine NPM2) (mouse, UniProt Q80W85 1-207).
T1 sequence: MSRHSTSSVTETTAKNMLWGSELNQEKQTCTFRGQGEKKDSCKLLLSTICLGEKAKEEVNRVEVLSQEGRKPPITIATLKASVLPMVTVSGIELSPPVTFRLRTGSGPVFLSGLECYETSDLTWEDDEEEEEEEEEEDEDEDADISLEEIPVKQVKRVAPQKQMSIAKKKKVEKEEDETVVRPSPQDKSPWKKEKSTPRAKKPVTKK
In words: cross-linking.

Ends that are not written are not given here.

B1: Mouse nucleoplasmin M.NPM2 (full murine NPM2) (natural protein)
chain: T1 sequence
B1: the stoichiometry N in assay [1] was 3 P1+P2:M.NPM2.

B2: Mouse protamine P1 (natural protein)
chain: MARYRC(pyridylethyl)C(pyridylethyl)RSKSRSRC(pyridylethyl)RRRRRRC(pyridylethyl)RRRRRRC(pyridylethyl)C(pyridylethyl)RRRRRRC(pyridylethyl)C(pyridylethyl)RRRRSYTIRC(pyridylethyl)KKY
Turning to B2, the binding result in assay [2] is “binds”.
